We go through seven molecules from patent publication US20230183322A1 (PEKING UNIVERSITY, published 2023).

Bounds are passed on as bounds.

Assay [1] deals with spike protein (Spike, S protein) of SARS-CoV-2 (SARS-CoV-2, UniProt P0DTC2 14-1273). As to the kind of experiment: cell-based or functional assay.
The target of assay [2] is biotin-labeled SARS-COV-2 RBD domain (SARS-CoV-2, UniProt P0DTC2 319-541). The assay is described as follows: SPR, Biacore T200, biotin-RBD on SA chip, antibody as analyte. On the technique in general: Surface plasmon resonance follows binding to a sensor surface in real time, without labels.
For assay [3], the target named is S protein of the novel coronavirus SARS-CoV-2 (SARS-CoV-2, UniProt P0DTC2 14-1273). As to the kind of experiment: cell-based or functional assay.
Assay [4] addresses biotin-labeled SARS-COV-2 RBD domain (SARS-CoV-2, UniProt P0DTC2 319-541). The assay is described as follows: SPR, Biacore T200, biotin-labeled RBD on SA chip, antibody as analyte, 1:1 model.

B1: antigen-binding unit ABU-190 (antibody, V domains shown)
VH: EVQLVESGGGLIQPGGSLRLSCAASGITVSSNYMSWVRQAPGKGLEWVSVIYSGGSTDYADSVKGRFTISRDKSKNTLYLQMNSLRAEDTAVYYCARDLGEAGGMDVWGQGTTVTVSS
VL: AIQLTQSPSSLSASVGDRVTITCRASQGISSYLAWYQQKPGKAPKLLIYAASTLQSGVPSRFSGSGSGTDFTLTISSLQPEDFATYYCQQLNSYPPAFGGGTKVEIK
On to B1, for which, in assay [1], the “IC50, Plaque Reduction Neutralization Test (PRNT), SARS-CoV-2 euvirus” value stood at 0.8 µg/mL.

B2: ABU-391 (antibody, V domains shown)
VH: EVQLVESGGGLIQPGGSLRLSCAASGFIVSSNYMSWVRQAPGKGLEWVSVIYSGGSTYYADSVKGRFTISRDNSKNTLYLQMNSLRAEDTAVYYCARDYGDYYFDYWGQGTLVTVSS
VL: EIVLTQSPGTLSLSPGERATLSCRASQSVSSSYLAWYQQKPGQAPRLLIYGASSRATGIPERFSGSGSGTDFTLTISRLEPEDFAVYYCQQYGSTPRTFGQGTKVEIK
What is called Kd is the equilibrium constant for the complex coming apart. On to B2, for which the Kd in assay [2] is less than 20 nM. Besides, the “IC50 for neutralizing SARS-CoV-2 pseudovirus (Huh-7 cells, luciferase)” value (“IC50 … (Huh-7 cells, luciferase)” for short) in assay [3] was less than 1 µg/mL.

B3: ABU-392 (antibody, V domains shown)
VH: EVQLVESGGGLIQPGGSLRLSCAASEFIVSRNYMSWVRQAPGKGLEWVSVIYSGGSTYYADSVKGRFTISRDNSKNTLNLQMNSLRAEDTAVYYCARDYGDYYFDYWGQGTLVTVSS
VL: EIVLTQSPGTLSLSPGERATLSCRASQGVSSFLAWYQQKPGQAPRLLIHGASSRATGIPDRFSGSGSGTDFTLTITRLEPEDFAVYYCQQYGSSPRTFGQGTKVEIK
Take B3: in assay [2], the Kd is less than 10 nM. Also, the “IC50 … (Huh-7 cells, luciferase)” value in assay [3] was less than 0.1 µg/mL.

B4: antigen-binding unit ABU-367 (antibody, V domains shown)
VH: EVQLVESGGGLIQPGGSLRLSCAASGIIVSSNYMTWVRQAPGKGLEWVSVIYSGGSTFYADSVKGRFTISRDNSKNTLYLQMSSLRAEDTAVYYCARDLGPYGMDVWGQGTTVTVSS
VL: DIQLTQSPSFLSASVGDRVTITCRASQGISSDLAWYQQKPGKAPNLLIYAASTLQSGVPSRFSGSGSGTEFTLTISSLQPEDFATYYCQQLNSDLYTFGQGTKLEIK
In assay [4], B4 had a Kd of 0.18 nM.

B5: ABU-395 (antibody, V domains shown)
VH: EVQVVESGGGLVQPGGSLRLSCAASGFTVSFNYMSWVRQAPGKGLEWVSVIYPGGSTYYADSVKGRFTISRHNSKNTVYLQMNSLRAEDTAVYYCARDYGDFYFDYWGQGTLVTVSS
VL: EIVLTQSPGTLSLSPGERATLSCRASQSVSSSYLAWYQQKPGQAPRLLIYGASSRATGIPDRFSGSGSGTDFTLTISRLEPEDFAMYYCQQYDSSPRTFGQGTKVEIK
In turn, B5 came in with a Kd in assay [2] of less than 10 nM. In assay [3], the “IC50 … (Huh-7 cells, luciferase)” value is less than 0.1 µg/mL.

B6: antigen-binding unit ABU-174 (antibody, V domains shown)
VH: QVQLQQWGAGLLKPSETLSLTCAVYGGSFSDYYWNWIRRPPGKGLEWIGEITHSGSTNYNPSLKSRVTISVDTSKNQFSLKLSSVTAADTAVYYCARGQGYGRVLLWFGEWGQGTLVTVSS
VL: EIVLTQSPATLSLSPGERATLSCRASQSVSTYLAWYQQKPGQAPRLLIYDASNRATGIPARFSGSGSGTDFTLTISSLEPEDFAVYYCQQRSNWITFGQGTRLEIK
As to B6, the “IC50, Plaque Reduction Neutralization Test (PRNT), SARS-CoV-2 euvirus” value in assay [1] was found to be 0.5 µg/mL.

B7: antigen-binding unit ABU-297 (antibody, V domains shown)
VH: EVQLLESGGGVVQPGGSLRLSCAASGFAFTTYAMNWVRQAPGRGLEWVSAISDGGGSAYYADSVKGRFTISRDNSKNTLYLQMNSLRAEDTAVYYCAKTRGRGLYDYVWGSKDYWGQGTLVTVSS
VL: not shown
In assay [4], B7 showed a Kd of 0.824 nM.
